# From patent US20260242478A1 (published 2026)
# B1: Phage-632 (peptide)
# peptide: YCAGHLPEYMQKCL
# notes: Clonal phage displaying the peptide; not shown: fused to pIII of the bacteriophage
# B2: Phage-633 (peptide)
# peptide: YCDGHLGIYMWKCL
# notes: as for B1
# B3: Phage-631 (peptide)
# peptide: YCEGHLPEYMSKCL
# notes: as for B1
# B4: Phage-614 (peptide)
# peptide: YCDGHAPEYIYKCL
# notes: Clonal phage of the Peptide-87 library, tested as crude phage supernatant; not shown: pIII of the bacteriophage to which the peptide is fused
# B5: Phage-613 (peptide)
# peptide: YCEGHAEEYMQKCL
# notes: as for B4
# B6: Phage-615 (peptide)
# peptide: YCDGHLEEYKQKCL
# notes: as for B4
# B7: Phage-607 (peptide)
# peptide: YCDGHSPLYIWKCL
# notes: as for B4
# B8: Phage-608 (peptide)
# peptide: YCDGHLPEYMHKCL
# notes: as for B4
# B9: Phage-612 (peptide)
# peptide: YCDGHSIEYRWKCL
# notes: as for B4
# B10: Phage-611 (peptide)
# peptide: YCDGHAVEYMAKCL
# notes: as for B4
# B11: Phage-609 (peptide)
# peptide: YCDGHLPEYIEKCL
# notes: as for B4
# B12: Phage-617 (peptide)
# peptide: YCDGHTQEYIAKCL
# notes: as for B4
# B13: Phage-605 (peptide)
# peptide: YCDGHLPEYLSKCL
# notes: as for B4
# B14: Phage-606 (peptide)
# peptide: YCAGHLPEYFLKCL
# notes: as for B4
# B15: Phage-616 (peptide)
# peptide: YCMGHLPQYMQKCL
# notes: as for B4
# B16: Phage-610 (peptide)
# peptide: YCDGHLPQYKAKCL
# notes: as for B4
# B17: Phage-629 (peptide)
# peptide: YCDGHSAEYMWKCL
# notes: tested as crude phage supernatant
# B18: Phage-622 (peptide)
# peptide: YCAGHAPEYIQKCL
# notes: as for B17
# B19: Phage-624 (peptide)
# peptide: YCAGHAPEYMQKCL
# notes: as for B17
# B20: Phage-625 (peptide)
# peptide: YCDGHSNEYMAKCL
# notes: as for B17
# B21: Phage-630 (peptide)
# peptide: YCDGHSLEYMAKCL
# notes: as for B17
# B22: Phage-618 (peptide)
# peptide: YCDGHTQEYMAKCL
# notes: as for B17
# B23: Phage-627 (peptide)
# peptide: YCDGHVAEYMAKCL
# notes: as for B17
# B24: Phage-623 (peptide)
# peptide: YCDGHVAEYRDKCL
# notes: as for B17
# B25: Phage-620 (peptide)
# peptide: YCDGHMPEYMWKCL
# notes: as for B17
# B26: Phage-628 (peptide)
# peptide: YCDGHLPEYMWKCI
# notes: as for B17
# B27: Phage-626 (peptide)
# peptide: YCEGHLPQYLQKCL
# notes: as for B17
# B28: Phage-619 (peptide)
# peptide: YCEGHLPVYMWKCL
# notes: as for B17
# B29: Phage-621 (peptide)
# peptide: YCAGHSPEYMTKCL
# notes: as for B17
# B30: Phage-590 (peptide)
# peptide: YCDGHSMEYMSKCL
# B31: Phage-591 (peptide)
# peptide: YCEGHLPMYMDKCL
# B32: Phage-601 (peptide)
# peptide: YCDGHAPEYMLKCL
# notes: Tested as clonal phage supernatant
# B33: Phage-602 (peptide)
# peptide: YCDGHAPDYMLKCL
# notes: as for B32
# B34: Phage-597 (peptide)
# peptide: YCEGHAPEYMLKCL
# notes: as for B32
# B35: Phage-598 (peptide)
# peptide: YCDGHAPEYMEKCM
# notes: as for B32
# B36: Phage-596 (peptide)
# peptide: YCDGHIEEYRAKCL
# notes: as for B32
# B37: Phage-595 (peptide)
# peptide: YCEGHLPQYMKKCL
# notes: as for B32
# B38: Phage-594 (peptide)
# peptide: YCEGHAAEYMTKCL
# notes: as for B32
# B39: Phage-603 (peptide)
# peptide: YCDGHLPEYLPKCL
# notes: as for B32
# B40: Phage-599 (peptide)
# peptide: YCEGHTVEYMAKCL
# notes: as for B32
# B41: Phage-592 (peptide)
# peptide: YCDGHRGEYLQKCL
# notes: as for B32
# B42: Phage-600 (peptide)
# peptide: YCDGHKAEYMDKCL
# notes: as for B32
# B43: Phage-604 (peptide)
# peptide: YCDGHMPEYIAKCL
# notes: as for B32
# B44: Phage-593 (peptide)
# peptide: YCEGHSPQYMWKCL
# notes: as for B32
# Target: Anti-CD28 Fab (SEQ ID NOs: 696, 697)
# Assay: phage ELISA, biotinylated anti-CD28 Fab on neutravidin plate, anti-M13 HRP detection
# Target sequence in this assay (VH, as listed by the source, chain 1 of 2): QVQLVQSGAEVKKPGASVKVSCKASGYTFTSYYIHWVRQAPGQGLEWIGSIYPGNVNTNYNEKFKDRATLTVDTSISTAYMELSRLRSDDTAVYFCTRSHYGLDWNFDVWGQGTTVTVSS
# Target sequence in this assay (VL, as listed by the source, chain 2 of 2): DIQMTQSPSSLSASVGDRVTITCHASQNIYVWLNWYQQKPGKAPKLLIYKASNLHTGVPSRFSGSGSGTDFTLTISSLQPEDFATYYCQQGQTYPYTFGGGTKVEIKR
# Protocol: (§1) After panning, phage infected bacteria were plated out and colonies picked into 96 well blocks. Clonal phage was then amplified and separated from bacterial cells via centrifugation.
# (§2) Clonal phage were harvested as crude supematants and screened via standard ELISAs. […] Prior to the addition of clonal phage, wells were incubated with blocking buffer and CD28 antigen or blocking buffer alone. Without washing or aspirating, clonal phage supematants were then added to the wells and incubated for a short time. Wells were then washed followed by detection of bound phage using a horse radish conjugated anti-M13 antibody. Clonal phage of interest were then sent for sequence analysis.
row,Binder,Anti-CD28 Fab signal (phage binding ELISA)
1,B1,2.15
2,B2,2.14
3,B3,2.15

# Target: Anti-CD28 Fab (SEQ ID NOs: 696, 697)
# Assay: phage ELISA on captured anti-CD28 Fab, wells pre-incubated with CD28 antigen as competitor;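 also: crude clonal phage supernatants added without washing, bound phage read out by HRP-coupled anti-M13 antibody, reference wells given blocking buffer only instead of CD28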
# Target sequence in this assay (VH, as listed by the source, chain 1 of 2): as the sequence (VH, as listed by the source, chain 1 of 2) above
# Target sequence in this assay (VL, as listed by the source, chain 2 of 2): as the sequence (VL, as listed by the source, chain 2 of 2) above
# Protocol: as §1, §2
row,Binder,Anti-CD28 Fab signal in the presence of CD28 (phage binding ELISA)
1,B1,0.09
2,B2,0.08
3,B3,0.07

# Target: T1, Anti-CD28 Fab (SEQ ID NOs: 696, 697)
# T1 construct: In the phage ELISA the Fab was biotinylated and captured on neutravidin coated plates
# Assay: phage ELISA; captured anti-CD28 Fab pre-incubated with CD28 antigen as competitor, anti-M13 HRP;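 also: crude clonal phage supernatants added without washing after CD28 pre-incubation, bound phage detected with HRP anti-M13 antibody, reference wells got blocking buffer lacking CD28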
# T1 sequence (VH, as listed by the source, chain 1 of 2): as the sequence (VH, as listed by the source, chain 1 of 2) above
# T1 sequence (VL, as listed by the source, chain 2 of 2): as the sequence (VL, as listed by the source, chain 2 of 2) above
# Protocol: as §1, §2
row,Binder,Anti-CD28 Fab signal in the presence of CD28 (phage binding ELISA)
1,B4,0.06
2,B5,0.06
3,B6,0.08
4,B7,0.09
5,B8,0.09
6,B9,0.06
7,B10,0.1
8,B11,0.07
9,B12,0.06
10,B13,0.07
11,B14,0.08
12,B15,0.11
13,B16,0.09

# Target: T1, Anti-CD28 Fab (SEQ ID NOs: 696, 697)
# Assay: phage ELISA; biotinylated anti-CD28 Fab on neutravidin plate, clonal phage supernatant, anti-M13 HRP
row,Binder,Anti-CD28 Fab signal (phage binding ELISA)
1,B4,2.18
2,B5,2.18
3,B6,2.18
4,B7,2.19
5,B8,2.19
6,B9,2.18
7,B10,2.18
8,B11,2.19
9,B12,2.17
10,B13,2.19
11,B14,2.19
12,B15,2.18
13,B16,2.19

# Target: anti-CD28 Fab (SEQ ID NOs: 696, 697)
# Sequence (VH, as listed by the source, chain 1 of 2): as the sequence (VH, as listed by the source, chain 1 of 2) above
# Sequence (VL, as listed by the source, chain 2 of 2): as the sequence (VL, as listed by the source, chain 2 of 2) above
# Assay: phage binding ELISA; Fab on plate pre-incubated with CD28 antigen as competitor, anti-M13 HRP detection;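 also: crude clonal phage supernatants screened by ELISA, with comparison wells pre-incubated in blocking buffer only, lacking CD28 antigen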
# Protocol: as §1, §2
row,Binder,Anti-CD28 Fab signal in the presence of CD28
1,B17,0.08
2,B18,0.09
3,B19,0.07
4,B20,0.07
5,B21,0.06
6,B22,0.07
7,B23,0.07
8,B24,0.07
9,B25,0.09
10,B26,0.07
11,B27,0.09
12,B28,0.09
13,B29,0.09

# Target: Anti-CD28 Fab (SEQ ID NOs: 696, 697)
# Assay: phage binding ELISA; captured anti-CD28 Fab pre-incubated with CD28 antigen as competitor, anti-M13 HRP
# Target sequence in this assay (VH, as listed by the source, chain 1 of 2): as the sequence (VH, as listed by the source, chain 1 of 2) above
# Target sequence in this assay (VL, as listed by the source, chain 2 of 2): as the sequence (VL, as listed by the source, chain 2 of 2) above
# Protocol: as §1, §2
row,Binder,Anti-CD28 Fab signal in the presence of CD28
1,B30,0.09
2,B31,0.07

# Target: T2, Anti-CD28 Fab (SEQ ID NOs: 696, 697)
# T2 construct: In the phage ELISA the Fab was biotinylated and captured on neutravidin coated plates
# Assay: phage ELISA; plate-bound anti-CD28 Fab pre-incubated with CD28 antigen as competitor, anti-M13 HRP detection
# T2 sequence (VH, as listed by the source, chain 1 of 2): as the sequence (VH, as listed by the source, chain 1 of 2) above
# T2 sequence (VL, as listed by the source, chain 2 of 2): as the sequence (VL, as listed by the source, chain 2 of 2) above
# Protocol: as §1, §2
row,Binder,"Phage binding ELISA, Anti-CD28 Fab signal in the presence of CD28"
1,B32,0.07
2,B33,0.09
3,B34,0.07
4,B35,0.07
5,B36,0.07
6,B37,0.1
7,B38,0.08
8,B39,0.09
9,B40,0.08
10,B41,0.09
11,B42,0.07
12,B43,0.08
13,B44,0.12

# Target: anti-CD28 Fab (SEQ ID NOs: 696, 697)
# Assay: phage binding ELISA; biotinylated Fab on neutravidin plate, clonal phage supernatant, anti-M13 HRP detection;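 also: phage from clones picked after panning, added to wells pre-incubated with blocking buffer with or without CD28 antigen, then briefly incubated and washed before detection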
# Protocol: as §1, §2
row,Binder,"Anti-CD28 Fab (SEQ ID NOs: 696, 697) signal"
1,B17,2.15
2,B18,2.17
3,B19,2.16
4,B20,2.16
5,B21,2.15
6,B22,2.17
7,B23,2.16
8,B24,2.17
9,B25,2.17
10,B26,2.15
11,B27,2.16
12,B28,2.17
13,B29,2.17

# Target: Anti-CD28 Fab (SEQ ID NOs: 696, 697)
# Assay: phage binding ELISA; biotinylated anti-CD28 Fab on neutravidin plate, clonal phage supernatant, anti-M13 HRP;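 also: crude clonal phage supernatants screened after wells were preincubated either with CD28 antigen in blocking buffer or with blocking buffer only, phage added without washing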
# Target sequence in this assay (VH, as listed by the source, chain 1 of 2): as the sequence (VH, as listed by the source, chain 1 of 2) above
# Target sequence in this assay (VL, as listed by the source, chain 2 of 2): as the sequence (VL, as listed by the source, chain 2 of 2) above
# Protocol: as §1, §2
row,Binder,"Anti-CD28 Fab (SEQ ID NOs: 696, 697) signal"
1,B30,2.22
2,B31,2.22

# Target: T2, Anti-CD28 Fab (SEQ ID NOs: 696, 697)
# Assay: phage ELISA; biotinylated anti-CD28 Fab on neutravidin plate, clonal phage supernatant, anti-M13 HRP detection;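 also: crude supernatants of single phage clones picked after panning were screened for binding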
row,Binder,"Phage binding ELISA, Anti-CD28 Fab signal"
1,B32,2.2
2,B33,2.2
3,B34,2.21
4,B35,2.21
5,B36,2.21
6,B37,2.22
7,B38,2.22
8,B39,2.19
9,B40,2.2
10,B41,2.22
11,B42,2.2
12,B43,2.19
13,B44,2.22
